One data set can be described thus: in vivo. The settings on record: ICR, mouse, sc, Mouse PK (S.C. half-life).
For the next data set, the target named is GLP-1 receptor (Homo sapiens, UniProt P43220). In words: Human GLP-1 receptor activation assay (CRE-luciferase). It counts as cell-based. Also noted: host or cells: CHO-K1. As to the method:
(§1) Then, the resulting increased luciferase activity was evaluated as a measurement of the effect on each receptor activation.
(§2) For positive control, endogenous ligand GLP-1 or glucagon was used for respective evaluation. The above-mentioned acylated oxyntomodulin peptide analogs of Comparative Example 8-12 were synthesized and used as comparative examples.
(§3) After 3 hours of transfection, medium was exchanged to Alpha Minimal Essential Medium (α-MEM) comprising 10% fetal bovine serum (FBS). Next day, the medium was exchanged to α-MEM comprising the acylated oxyntomodulin peptide analog of the present invention and 0.1% bovine serum albumin (BSA). After 6 hours, dual luciferase assay reagent (Promega) was added in the same amount as the medium in which the cells were submerged, and firefly luciferase and Renilla luciferase activities were successively measured. Firefly luciferase activity values were corrected against Renilla luciferase activity to yield transfection efficiency.

The next data set addresses glucagon receptor (Homo sapiens, UniProt P47871). The experiment in a line: Human glucagon receptor activation assay (CRE-luciferase). In kind it is cell-based. Also noted: host or cells: CHO-K1. The settings on record: CHO-K1 cells transiently transfected. As to the method:
as §1, §2, §3

In the next data set the target is Human GLP-1 receptor (human, UniProt P43220). The experiment in a line: cell-based or functional assay.
A further data set has as its target Human glucagon receptor (human, UniProt P47871). The experiment in a line: cell-based or functional assay.

From patent US20230220035A1 (DONG-A ST CO., LTD., published 2023) come the findings set out here.

*1 amine or outer side, *2 acyl side, *3 side chain or, on linkers, in order; H or OH if unused. Side-chain parts run from the residue outwards. [ ]: non-standard residue; d: D form. The star is where a group is joined. γGlu = O=C(O)[C@H](CCC(=O)[*:2])N[*:1]; Stearoyl = CCCCCCCCCCCCCCCCCC(=O)*; Palmitoyl = CCCCCCCCCCCCCCCC(=O)*; AEEA = NCCOCCOCC(=O)O; Aib = CC(C)(N)C(=O)O A value given as a limit tells only on which side of the number the result lay.

GLP-1 receptor, sequence (P43220 24-463): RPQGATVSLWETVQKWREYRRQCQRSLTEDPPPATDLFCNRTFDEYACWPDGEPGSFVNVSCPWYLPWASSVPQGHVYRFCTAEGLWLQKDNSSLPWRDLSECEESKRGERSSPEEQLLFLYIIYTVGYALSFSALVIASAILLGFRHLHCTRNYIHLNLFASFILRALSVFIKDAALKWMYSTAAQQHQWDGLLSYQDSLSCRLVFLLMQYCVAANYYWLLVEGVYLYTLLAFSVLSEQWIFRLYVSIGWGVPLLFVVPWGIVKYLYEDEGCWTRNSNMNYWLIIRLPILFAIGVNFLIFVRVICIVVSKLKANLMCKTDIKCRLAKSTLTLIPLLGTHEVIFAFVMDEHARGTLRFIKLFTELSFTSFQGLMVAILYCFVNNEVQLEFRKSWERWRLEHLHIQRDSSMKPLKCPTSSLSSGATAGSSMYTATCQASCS
glucagon receptor, sequence (P47871 26-477): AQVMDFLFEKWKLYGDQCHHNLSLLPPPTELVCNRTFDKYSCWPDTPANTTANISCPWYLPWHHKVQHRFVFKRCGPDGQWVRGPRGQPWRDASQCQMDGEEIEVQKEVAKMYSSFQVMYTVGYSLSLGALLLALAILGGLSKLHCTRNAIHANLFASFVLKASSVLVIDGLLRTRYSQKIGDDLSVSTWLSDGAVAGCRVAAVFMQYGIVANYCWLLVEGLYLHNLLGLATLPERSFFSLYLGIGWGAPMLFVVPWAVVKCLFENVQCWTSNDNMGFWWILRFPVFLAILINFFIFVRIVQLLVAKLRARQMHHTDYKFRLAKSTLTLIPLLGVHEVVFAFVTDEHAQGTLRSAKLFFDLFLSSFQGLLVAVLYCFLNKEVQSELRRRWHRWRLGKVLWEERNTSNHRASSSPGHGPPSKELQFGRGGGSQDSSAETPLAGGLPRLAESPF
From the text for in vivo: ICR mice were used to evaluate the pharmacokinetics in mice of the acylated oxyntomodulin peptide analogs according to the present invention.

Broadly, the half-life is the time in which the quantity being followed falls by half. A low value points to fast loss. Broadly, the EC50 is the concentration needed to bring the measured effect to its halfway point. For `CCCCCCCCCCCCCCCCCC(=O)N[C@@H](CCC(=O)NCCOCCOCC(=O)NCCOCCOCC(=O)NCCCC[C@H](NC(=O)[C@H](CC(=O)O)NC(=O)[C@H](CO)NC(=O)[C@@H](NC(=O)[C@H](Cc1ccccc1)NC(=O)[C@@H](NC(=O)CNC(=O)[C@H](CCC(N)=O)NC(=O)C(C)(C)NC(=O)[C@@H](N)Cc1c[nH]cn1)[C@@H](C)O)[C@@H](C)O)C(=O)N[C@@H](CO)C(=O)N[C@@H](CCCCN)C(=O)N[C@@H](Cc1ccc(O)cc1)C(=O)N[C@@H](CC(C)C)C(=O)N[C@@H](CC(=O)O)C(=O)NC(C)(C)C(=O)N[C@@H](CCCNC(=N)N)C(=O)N[C@@H](CCCNC(=N)N)C(=O)N[C@@H](C)C(=O)N[C@@H](CCC(N)=O)C(=O)N[C@@H](CC(=O)O)C(=O)N[C@@H](Cc1ccccc1)C(=O)N[C@H](C(=O)N[C@@H](CCC(N)=O)C(=O)N[C@@H](Cc1c[nH]c2ccccc12)C(=O)N[C@@H](CC(C)C)C(=O)N[C@@H](CCSC)C(=O)N[C@@H](CC(N)=O)C(=O)N[C@H](C(=O)N[C@@H](CCCCN)C(=O)O)[C@@H](C)O)C(C)C)C(=O)O` [Compound 8], the half-life in “in vivo” was < 6 h. The Emax at GLP-1 receptor (CHO-K1, 6 h, read-out: GLP-1 receptor Maximum activation (% vs GLP-1)) was determined as 99.3%; on glucagon receptor (6 h, relative to glucagon, read-out: GCG receptor Maximum activation (% vs GCG)), 103%. In addition, the EC50 on GLP-1 receptor (CHO-K1 cells transiently transfected, luciferase, 6 hours, 0.1% BSA) was < 0.1 nM; on glucagon receptor (6 hours, 0.1% BSA, read-out: GCG receptor EC50), < 0.1 nM.

B1: Comparative Example Compound 11 (peptide)
peptide: H-H[Aib]QGTFTSDK([AEEA-AEEA-γGlu-Stearoyl])SKYLD[Aib]RRAQDFVQWLMNTKEYEK(15‑aminocarboxy‑1‑oxopentadecyl)EYE-OH
Consider B1, for which, in the data set with Human GLP-1 receptor, the EC50 was < 0.1 nM and the “Maximum activation (% vs GLP-1)” value was 92.8%. In the data set with Human glucagon receptor, the EC50 was < 0.1 nM and the “Maximum activation (% vs GCG)” value was found to be 98.5%.

B2: Compound 2 (peptide)
peptide: H-H[Aib]QGTFTSDK([AEEA-AEEA-γGlu-Stearoyl])SKYLD[Aib]RRAQDFVQWLMNTKEYEK(15‑carboxy‑1‑oxopentadecyl)EYE-OH
In the case of B2, the “Maximum activation (% vs GLP-1)” value with Human GLP-1 receptor was 104%. In the data set with Human glucagon receptor, the “Maximum activation (% vs GCG)” value came to 100%.

B3: Comparative Example Compound 9 (peptide)
peptide: H-H[Aib]QGTFTSDK([AEEA-AEEA-γGlu-Stearoyl])SKYLD[Aib]RRAQDFVQWLMNTKEYEK(Palmitoyl)EYE-OH
SMILES: CCCCCCCCCCCCCCCCCC(=O)N[C@@H](CCC(=O)NCCOCCOCC(=O)NCCOCCOCC(=O)NCCCC[C@H](NC(=O)[C@H](CC(=O)O)NC(=O)[C@H](CO)NC(=O)[C@@H](NC(=O)[C@H](Cc1ccccc1)NC(=O)[C@@H](NC(=O)CNC(=O)[C@H](CCC(N)=O)NC(=O)C(C)(C)NC(=O)[C@@H](N)Cc1c[nH]cn1)[C@@H](C)O)[C@@H](C)O)C(=O)N[C@@H](CO)C(=O)N[C@@H](CCCCN)C(=O)N[C@@H](Cc1ccc(O)cc1)C(=O)N[C@@H](CC(C)C)C(=O)N[C@@H](CC(=O)O)C(=O)NC(C)(C)C(=O)N[C@@H](CCCNC(=N)N)C(=O)N[C@@H](CCCNC(=N)N)C(=O)N[C@@H](C)C(=O)N[C@@H](CCC(N)=O)C(=O)N[C@@H](CC(=O)O)C(=O)N[C@@H](Cc1ccccc1)C(=O)N[C@H](C(=O)N[C@@H](CCC(N)=O)C(=O)N[C@@H](Cc1c[nH]c2ccccc12)C(=O)N[C@@H](CC(C)C)C(=O)N[C@@H](CCSC)C(=O)N[C@@H](CC(N)=O)C(=O)N[C@H](C(=O)N[C@@H](CCCCN)C(=O)N[C@@H](CCC(=O)O)C(=O)N[C@@H](Cc1ccc(O)cc1)C(=O)N[C@@H](CCC(=O)O)C(=O)N[C@@H](CCCCNC(=O)CCCCCCCCCCCCCCC)C(=O)N[C@@H](CCC(=O)O)C(=O)N[C@@H](Cc1ccc(O)cc1)C(=O)N[C@@H](CCC(=O)O)C(=O)O)[C@@H](C)O)C(C)C)C(=O)O
Consider B3, for which the “Maximum activation (% vs GLP-1)” value in the data set with Human GLP-1 receptor stood at 70.4%. For the same molecule, the “Maximum activation (% vs GCG)” value in the data set with Human glucagon receptor is 73.3%.

B4: Compound 7 (peptide)
peptide: H-H[Aib]QGTFTSDK([AEEA-AEEA-γGlu-Stearoyl])SKYLD[Aib]RRAQDFVQWLMNTKEYEK(17‑aminocarboxy‑1‑oxoheptadecyl)EYE-OH
In the case of B4, in the data set with Human GLP-1 receptor, the EC50 was < 0.1 nM and the “Maximum activation (% vs GLP-1)” value came out at 90.8%. In the data set with Human glucagon receptor, the EC50 is < 0.1 nM and the “Maximum activation (% vs GCG)” value came to 100%.

B5: Comparative Example Compound 10 (peptide)
peptide: H-H[Aib]QGTFTSDK([AEEA-AEEA-γGlu-Stearoyl])SKYLD[Aib]RRAQDFVQWLMNTKEYEK(13‑aminocarboxy‑1‑oxotridecyl)EYE-OH
In the case of B5, in the data set with Human GLP-1 receptor, the concentration giving a half-maximal response (EC50) is < 0.1 nM and the “Maximum activation (% vs GLP-1)” value stood at 105%. For the same molecule, in the data set with Human glucagon receptor, the EC50 is < 0.1 nM and the “Maximum activation (% vs GCG)” value stood at 110%.

B6: Comparative Example Compound 12 (peptide)
peptide: H-H[Aib]QGTFTSDK([AEEA-AEEA-γGlu-Stearoyl])SKYLD[Aib]RRAQDFVQWLMNTKEYEK([AEEA-AEEA-AEEA-Palmitoyl])EYE-OH
SMILES: CCCCCCCCCCCCCCCCCC(=O)N[C@@H](CCC(=O)NCCOCCOCC(=O)NCCOCCOCC(=O)NCCCC[C@H](NC(=O)[C@H](CC(=O)O)NC(=O)[C@H](CO)NC(=O)[C@@H](NC(=O)[C@H](Cc1ccccc1)NC(=O)[C@@H](NC(=O)CNC(=O)[C@H](CCC(N)=O)NC(=O)C(C)(C)NC(=O)[C@@H](N)Cc1c[nH]cn1)[C@@H](C)O)[C@@H](C)O)C(=O)N[C@@H](CO)C(=O)N[C@@H](CCCCN)C(=O)N[C@@H](Cc1ccc(O)cc1)C(=O)N[C@@H](CC(C)C)C(=O)N[C@@H](CC(=O)O)C(=O)NC(C)(C)C(=O)N[C@@H](CCCNC(=N)N)C(=O)N[C@@H](CCCNC(=N)N)C(=O)N[C@@H](C)C(=O)N[C@@H](CCC(N)=O)C(=O)N[C@@H](CC(=O)O)C(=O)N[C@@H](Cc1ccccc1)C(=O)N[C@H](C(=O)N[C@@H](CCC(N)=O)C(=O)N[C@@H](Cc1c[nH]c2ccccc12)C(=O)N[C@@H](CC(C)C)C(=O)N[C@@H](CCSC)C(=O)N[C@@H](CC(N)=O)C(=O)N[C@H](C(=O)N[C@@H](CCCCN)C(=O)N[C@@H](CCC(=O)O)C(=O)N[C@@H](Cc1ccc(O)cc1)C(=O)N[C@@H](CCC(=O)O)C(=O)N[C@@H](CCCCNC(=O)COCCOCCNC(=O)COCCOCCNC(=O)COCCOCCNC(=O)CCCCCCCCCCCCCCC)C(=O)N[C@@H](CCC(=O)O)C(=O)N[C@@H](Cc1ccc(O)cc1)C(=O)N[C@@H](CCC(=O)O)C(=O)O)[C@@H](C)O)C(C)C)C(=O)O
Turning to B6, in the data set with Human GLP-1 receptor, the EC50 is < 0.1 nM and the “Maximum activation (% vs GLP-1)” value was determined as 102%. In the data set with Human glucagon receptor, the EC50 is < 0.1 nM and the “Maximum activation (% vs GCG)” value was determined as 89.6%.

B7: Comparative Example Compound 8 (peptide)
peptide: H-H[Aib]QGTFTSDK([AEEA-AEEA-γGlu-Stearoyl])SKYLD[Aib]RRAQDFVQWLMNTK-OH
SMILES: CCCCCCCCCCCCCCCCCC(=O)N[C@@H](CCC(=O)NCCOCCOCC(=O)NCCOCCOCC(=O)NCCCC[C@H](NC(=O)[C@H](CC(=O)O)NC(=O)[C@H](CO)NC(=O)[C@@H](NC(=O)[C@H](Cc1ccccc1)NC(=O)[C@@H](NC(=O)CNC(=O)[C@H](CCC(N)=O)NC(=O)C(C)(C)NC(=O)[C@@H](N)Cc1c[nH]cn1)[C@@H](C)O)[C@@H](C)O)C(=O)N[C@@H](CO)C(=O)N[C@@H](CCCCN)C(=O)N[C@@H](Cc1ccc(O)cc1)C(=O)N[C@@H](CC(C)C)C(=O)N[C@@H](CC(=O)O)C(=O)NC(C)(C)C(=O)N[C@@H](CCCNC(=N)N)C(=O)N[C@@H](CCCNC(=N)N)C(=O)N[C@@H](C)C(=O)N[C@@H](CCC(N)=O)C(=O)N[C@@H](CC(=O)O)C(=O)N[C@@H](Cc1ccccc1)C(=O)N[C@H](C(=O)N[C@@H](CCC(N)=O)C(=O)N[C@@H](Cc1c[nH]c2ccccc12)C(=O)N[C@@H](CC(C)C)C(=O)N[C@@H](CCSC)C(=O)N[C@@H](CC(N)=O)C(=O)N[C@H](C(=O)N[C@@H](CCCCN)C(=O)O)[C@@H](C)O)C(C)C)C(=O)O
Turning to B7, in the data set with Human GLP-1 receptor, the EC50 was < 0.1 nM and the “Maximum activation (% vs GLP-1)” value amounted to 99.3%. Besides, in the data set with Human glucagon receptor, the EC50 is < 0.1 nM and the “Maximum activation (% vs GCG)” value worked out at 103%.
